Data on four molecules can be found in paper PMC5748972 (The Journal of Cell Biology, 2018).

The target of assay [1] is intact integrin α4β1 on the surface of Jurkat cells (human (endogenous in Jurkat)) (UniProt P13612). In words: flow cytometry on cells.
In assay [2] the target is intact α4β1 on Jurkat cells (Homo sapiens, UniProt P05556+P13612). In words: Fluorescent flow cytometry saturation binding of FITC-LDVP, Jurkat. The following applies: basal.
Assay [3] has as its target intact α4β1 on Thp1 cells (Homo sapiens, UniProt P05556+P13612). Nature of the assay: Fluorescent flow cytometry saturation binding of FITC-LDVP, Thp1. The following applies: basal.
The next assay deals with intact α4β1 on KA4 cells (Homo sapiens, UniProt P05556+P13612). In words: Fluorescent flow cytometry saturation binding of FITC-LDVP, KA4. Conditions: basal.
The target in a further assay is integrin α4β1 (Homo sapiens, UniProt P05556+P13612). Nature of the assay: Summary statements across α4β1 preparations and cell types. It is filed as binding. Conditions: Jurkat, Thp1, KA4 cell surface.
Assay [4] deals with FITC-conjugated 4-((N′-2-methylphenyl)ureido)-phenylacetyl-L-leucyl-L-aspartyl-L-valyl-L-prolyl-L-al. Nature of the assay: fluorescence polarisation.
Assay [5] concerns the target intact integrin α4β1 on the surface of Jurkat cells (human (endogenous in Jurkat), UniProt P13612;P05556). In words: flow cytometry on cells.

Molecule “human MAdCAM D1D2 (mucosal addressin cell adhesion molecule, domains 1 and 2) (domain or fragment)” came in with a Kd in assay [1] of 13900 nM.
Consider “α4β1: integrin α4β1; intact receptor on the cell surface”, for which the entries for the “P^EO” value (in assay [2]; in assay [3]; in the assay with intact α4β1 on KA4 cells) were 1.1 ± 0.2%, 0.4 ± 0.1% and 1.4 ± 0.3%, respectively. The “free energy of the BC state, range on three cell types” value with integrin α4β1 was -3.2 to -2.5 kcal/mol.
As to “integrin α4β1 headpiece with high-mannose N-glycans (from UniProt P05556 21-501) (complex)”, in assay [4], the dissociation constant Kd was determined as 5.2 nM.

B1: alternatively spliced connecting segment III of human fibronectin (domain or fragment)
chain: DELPQLVTLPHPNLHGPEILDVPSTVQKTPFVTHPGYDTGNGIQLPGTSGQQPSVGQQMIFEEHGFRRTTPPTTATPIRHRPRPYPPNVGEEIQIGHIPREDVDYHLYPHG
B1 had a Kd in assay [5] of 1000 ± 190 nM.
